Data on four substances can be found in publication PMC3790809.

Values joined by “and” are separate entries in the source; they are usually repeats but may differ in a detail not shown here. Equal values may be shown once.

What is called stoichiometry N is a count of units in the complex or per binding partner. As a reminder, the Kd is the free concentration of one partner at which half of the binding sites on the other are occupied at equilibrium, for simple one-to-one binding. Read a high Kd as weaker binding. The term koff denotes the first-order rate constant of dissociation. A word on the kon: it is the second-order rate constant of association. A lower kon goes with slow association.

Test [1] has as its target YsaL-His (YE3555 with N-terminal His tag, refolded) (Yersinia enterocolitica ATCC51871 (serotype O:8, biovar 1B)). The experiment in a line: SEC. For orientation: SEC sorts molecules by how far they enter the pores of the column.
Test [2] has the same target. The experiment in a line: cross-linking; refolded YsaL-His (100 µg in 30 µl), 2 µL of 1.5% glutaraldehyde, 25°C, 5 min; 50 mM sodium phosphate pH 8.0, 150 mM NaCl; SDS-PAGE.
Test [3] concerns the target YsaN-His (full length YsaN, YE3544, with N-terminal His tag) (Yersinia enterocolitica ATCC51871 (serotype O:8, biovar 1B)). As to the kind of experiment: SEC.
For test [4] the target is unchanged. The experiment in a line: dynamic light scattering; YsaN-His 0.7 mg/ml, 25°C, 25 mM Tris, 300 mM NaCl, 2% glycerol; mass from the hydrodynamic size.
Test [5] has the same target.
The target is the same in test [6]. The experiment in a line: SPR.
The target in test [7] is YsaNΔ(1–5)-His (Yersinia enterocolitica ATCC51871 (serotype O:8, biovar 1B)). The experiment in a line: SPR.
In test [8] the target is YsaNΔ(411–430)-His (Yersinia enterocolitica ATCC51871 (serotype O:8, biovar 1B)). As to the kind of experiment: SPR. For orientation: SPR reads the build-up and loss of mass on a sensor chip optically.
The target in test [9] is YsaNΔ(426–430)-His (Yersinia enterocolitica ATCC51871 (serotype O:8, biovar 1B)). As to the kind of experiment: SPR.
For test [10], the target named is YsaN-His (full length YsaN, soluble) (Yersinia enterocolitica ATCC51871). As to the kind of experiment: SPR.
In test [11] the target is YsaNflr-His (full length YsaN, refolded) (Yersinia enterocolitica ATCC51871). The experiment in a line: SPR.
For test [12], the target named is YsaNΔ(1-5)-His (Yersinia enterocolitica ATCC51871). The experiment in a line: SPR.
The target in test [13] is YsaNΔ(411-430)-His (Yersinia enterocolitica ATCC51871). The experiment in a line: SPR.
The target of test [14] is YsaNΔ(426-430)-His (Yersinia enterocolitica ATCC51871). As to the kind of experiment: SPR.

As for “YsaL-His (YE3555 with N-terminal His tag, refolded) (natural protein)”, the stoichiometry N in test [1] and in test [2] was 2 each time.

On to “YsaN-His (full length YsaN, YE3544, with N-terminal His tag) (enzyme)”, for which, in test [3], the stoichiometry N worked out at 12. The substance also gave a percent of sample in the oligomeric form in test [4] of 90%.

Turning to “untagged YsaL (YE3555) (natural protein)”, in test [5], the inhibition of the ATPase activity of YsaN-His (malachite green assay); untagged YsaL in the soluble co-purified untagged YsaL-YsaN-His complex, highly comparable with YsaL-His added at 2∶1 was determined as 73%. The substance also showed a stoichiometry N (YsaL per YsaN) in test [3] of 2. The Kd is 35 nM and 42 nM in [6]; 400000 nM in test [7]; 100 nM in test [8]; 100 nM in [9].

In the case of “untagged YsaL (YE3555), refolded (natural protein)”, the Ka in test [10] stood at 2.9e+07 M⁻¹; in [11] it was 2.38e+08 M⁻¹; in [12] it was 20300 M⁻¹; in test [13] it was 3.86e+06 M⁻¹; in test [14], 882000 M⁻¹. The off-rate (koff) in test [10] was determined as 0.000119 s⁻¹; in [11] it was 1.91e-05 s⁻¹; in [13], 0.000132 s⁻¹. Moreover, the kon in [10] came out at 3450 M⁻¹ s⁻¹; in [11] it was 4540 M⁻¹ s⁻¹; in test [13], 510 M⁻¹ s⁻¹. In addition, the Kd in [13] is 260 nM.
